Measured values: paper PMC6588440 (Free radical biology & medicine, 2019)

B1: Peroxiredoxin 2 (Prx2) (natural protein, UniProt P32119 1-198, looked up)
chain: MASGNARIGKPAPDFKATAVVDGAFKEVKLSDYKGKYVVLFFYPLDFTFVCPTEIIAFSNRAEDFRKLGCEVLGVSVDSQFTHLAWINTPRKEGGLGPLNIPLLADVTRRLSEDYGVLKTDEGIAYRGLFIIDGKGVLRQITVNDLPVGRSVDEALRLVQAFQYTDEHGEVCPAGWKPGSDTIKPNVDDSKEYFSKHN
modifications: inter-subunit disulfide (oxidized dimer); reduced thiols alkylated with NEM before lysis
B2: Peroxiredoxin 3 (Prx3) (natural protein, UniProt P30048 62-256, looked up)
chain: APAVTQHAPYFKGTAVVNGEFKDLSLDDFKGKYLVLFFYPLDFTFVCPTEIVAFSDKANEFHDVNCEVVAVSVDSHFSHLAWINTPRKNGGLGHMNIALLSDLTKQISRDYGVLLEGSGLALRGLFIIDPNGVIKHLSVNDLPVGRSVEETLRLVKAFQYVETHGEVCPANWTPDSPTIKPSPAASKEYFQKVNQ
modifications: inter-subunit disulfide (oxidized dimer); reduced thiols alkylated with NEM before lysis
B3: Peroxiredoxin 1 (Prx1) (natural protein, UniProt Q06830 1-199, looked up)
chain: MSSGNAKIGHPAPNFKATAVMPDGQFKDISLSDYKGKYVVFFFYPLDFTFVCPTEIIAFSDRAEEFKKLNCQVIGASVDSHFCHLAWVNTPKKQGGLGPMNIPLVSDPKRTIAQDYGVLKADEGISFRGLFIIDDKGILRQITVNDLPVGRSVDETLRLVQAFQFTDKHGEVCPAGWKPGSDTIKPDVQKSKEYFSKQK
modifications: inter-subunit disulfide (oxidized dimer); reduced thiols alkylated with NEM before lysis

Target: the molecule itself
Experiment: non-reducing SDS-PAGE immunoblot

Stoichiometry N, 2:
B1, B2, B3
